# IntAct's records for PubMed 31243363
# B1: Phospholipid-transporting ATPase DRS2 (Saccharomyces cerevisiae), P39524 (parent)
# chain: MNDDRETPPKRKPGEDDTLFDIDFLDDTTSHSGSRSKVTNSHANANYIPPSHVLPEETIDLDADDDNIENDVHENLFMSNNHDDQTSWNANRFDSDAYQPQSLRAVKPPGLFARFGNGLKNAFTFKRKKGPESFEMNHYNAVTNNELDDNYLDSRNKFNIKILFNRYILRKNVGDAEGNGEPRVIHINDSLANSSFGYSDNHISTTKYNFATFLPKFLFQEFSKYANLFFLCTSAIQQVPHVSPTNRYTTIGTLLVVLIVSAMKECIEDIKRANSDKELNNSTAEIFSEAHDDFVEKRWIDIRVGDIIRVKSEEPIPADTIILSSSEPEGLCYIETANLDGETNLKIKQSRVETAKFIDVKTLKNMNGKVVSEQPNSSLYTYEGTMTLNDRQIPLSPDQMILRGATLRNTAWIFGLVIFTGHETKLLRNATATPIKRTAVEKIINRQIIALFTVLIVLILISSIGNVIMSTADAKHLSYLYLEGTNKAGLFFKDFLTFWILFSNLVPISLFVTVELIKYYQAFMIGSDLDLYYEKTDTPTVVRTSSLVEELGQIEYIFSDKTGTLTRNIMEFKSCSIAGHCYIDKIPEDKTATVEDGIEVGYRKFDDLKKKLNDPSDEDSPIINDFLTLLATCHTVIPEFQSDGSIKYQAASPDEGALVQGGADLGYKFIIRKPNSVTVLLEETGEEKEYQLLNICEFNSTRKRMSAIFRFPDGSIKLFCKGADTVILERLDDEANQYVEATMRHLEDYASEGLRTLCLAMRDISEGEYEEWNSIYNEAATTLDNRAEKLDEAANLIEKNLILIGATAIEDKLQDGVPETIHTLQEAGIKIWVLTGDRQETAINIGMSCRLLSEDMNLLIINEETRDDTERNLLEKINALNEHQLSTHDMNTLALVIDGKSLGFALEPELEDYLLTVAKLCKAVICCRVSPLQKALVVKMVKRKSSSLLLAIGDGANDVSMIQAAHVGVGISGMEGMQAARSADIAVGQFKFLKKLLLVHGSWSYQRISVAILYSFYKNTALYMTQFWYVFANAFSGQSIMESWTMSFYNLFFTVWPPFVIGVFDQFVSSRLLERYPQLYKLGQKGQFFSVYIFWGWIINGFFHSAIVFIGTILIYRYGFALNMHGELADHWSWGVTVYTTSVIIVLGKAALVTNQWTKFTLIAIPGSLLFWLIFFPIYASIFPHANISREYYGVVKHTYGSGVFWLTLIVLPIFALVRDFLWKYYKRMYEPETYHVIQEMQKYNISDSRPHVQQFQNAIRKVRQVQRMKKQRGFAFSQAEEGGQEKIVRMYDTTQKRGKYGELQDASANPFNDNNGLGSNDFESAEPFIENPFADGNQNSNRFSSSRDDISFDI
# partner: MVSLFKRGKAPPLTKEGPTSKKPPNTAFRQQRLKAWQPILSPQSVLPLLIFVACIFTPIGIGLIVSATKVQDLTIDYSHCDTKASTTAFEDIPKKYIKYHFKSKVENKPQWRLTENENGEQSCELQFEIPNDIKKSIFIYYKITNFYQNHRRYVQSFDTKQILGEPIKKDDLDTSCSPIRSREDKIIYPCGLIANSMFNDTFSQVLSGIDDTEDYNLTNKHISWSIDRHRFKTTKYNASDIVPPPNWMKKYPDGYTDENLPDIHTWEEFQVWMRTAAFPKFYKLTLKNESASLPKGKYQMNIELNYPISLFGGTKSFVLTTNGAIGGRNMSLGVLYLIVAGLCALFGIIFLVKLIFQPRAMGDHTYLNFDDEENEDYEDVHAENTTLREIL
# Variants of: B1
# Conditions: with cdc50_yeast CDC50, P25656
row,Variant,effect of a mutation on the interaction
1,Y1235A,with no effect
2,Y1235F,with no effect
3,H1236A,with no effect
